{
  "source": "paper doi:10.1101/2023.02.19.529138",
  "about": "(bioRxiv, 2023)",
  "experiment_in_all_cases": "single-molecule photobleaching step analysis",
  "key": {"LeuT (Aquifex aeolicus)": {"target": "LeuT (Aquifex aeolicus)"}, "[1]": {"target": "the molecule itself"}, "[2]": {"target": "T1, KcsA (Streptomyces lividans), P0A334", "T1 chain": "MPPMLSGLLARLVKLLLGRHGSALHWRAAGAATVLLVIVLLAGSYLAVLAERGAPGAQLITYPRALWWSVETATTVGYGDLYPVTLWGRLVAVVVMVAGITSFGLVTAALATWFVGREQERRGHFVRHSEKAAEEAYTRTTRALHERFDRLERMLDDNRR", "conditions": "remark: other sources report otherwise"}},
  "data": [
    {"molecule": "LeuT (natural protein)", "values": [
      {"measurement": "percent dimer", "setting": "LeuT (Aquifex aeolicus)", "result": 75, "unit": "%"},
      {"measurement": "percent monomer", "setting": "LeuT (Aquifex aeolicus)", "result": 14, "unit": "%"}
    ]},
    {"molecule": "SemiSWEET (natural protein) MALIERIGKALEPLMLVMGLISPLATMPQLYKLYVSHSEHALGLSLTTWLLYSFIALLWTIYGIYHKNPTIWVGNCLGFLMYVAMVVGIIAHTGGTY", "values": [
      {"measurement": "stoichiometry N", "setting": "[1]", "result": 2}
    ]},
    {"molecule": "KcsA, P0A334 1-160 (natural protein) MPPMLSGLLARLVKLLLGRHGSALHWRAAGAATVLLVIVLLAGSYLAVLAERGAPGAQLITYPRALWWSVETATTVGYGDLYPVTLWGRLVAVVVMVAGITSFGLVTAALATWFVGREQERRGHFVRHSEKAAEEAYTRTTRALHERFDRLERMLDDNRR", "values": [
      {"measurement": "stoichiometry N", "setting": "[2]", "result": 4}
    ]}
  ]
}
